Measured values: US20050058697A1, “Cell penetrating therapeutic agents” (priority 2001, published 2005)

What was measured:
[1] = Association of AntpHD-Cw3 with liposomes (size exclusion chromatography, micro BCA protein assay, [3H]CHE lipid count); format: physicochemical; settings: for coupling efficiency: 10 mol % DOGS-NTA-Ni
Method: Formulations were incubated with AntpHD-Cw3, free peptide was separated from the associated peptide using size exclusion chromatography, amount of peptide (□) and lipid (●) was then determined for each fraction as described herein.
DOPC/Chol liposomes containing 0% (O) and 10% (▪) DOGS-NTA-Ni were incubated with AntpHD-Cw3 at various peptide to liposome ratio for 30 min. at room temperature. The amount of peptide bound was determined after the incubation period as described herein. Data presented represent averaged results obtained from three liposome preparations ±S.E.M.
200 μg of dialyzed AntpHD-Cw3 was incubated with 10 μmoles liposomes as described for FIGS. 2-4 (v/v) for 30 min. at room temperature under rotary shaking. The mixture was then loaded on a Biogel™ A 1.5 m chromatography column in order to remove the free peptide from peptide that was incorporated into the liposome. The peptide/liposome ratio was determined by quantifying liposomal lipid using [^3H]CHE. Radioactivity was measured by liquid scintillation counting on a Can berra-Packard scintillation P counter (1900 TR Tri Carb™), using Pico-fluor 40™ scintillation cocktail. The peptide was quantified using the micro BCA™ protein assay kit, after dissolving the liposomes in 0.5% triton. BSA was used as the standard for this analysis.

Question: With CCCCCCCC/C=C\CCCCCCCC(=O)OC[C@H](COC(=O)CCC(=O)NCCCCC(C(=O)O)N(CC(=O)[O-])CC(=O)[O-])OC(=O)CCCCCCC/C=C\CCCCCCCC.[Ni+2] (stereo partly shown) [DOGS-NTA-Ni, 1,2-Dioleoyl-sn-glycero-3-{[n(5-amino-1-carboxypentyl)iminodiaceticacid]succinyl} (Nickel Salt)] as the molecule, how does the “immune response to the lipid alone” value read?
Answer: little in the way of a detectable immune response

Question: With “AntpHD-Cw3: Antennapedia homeodomain fused to Cw3 epitope (170-179), with 10-histidine tag and 13-amino acid linker (SEQ ID NO:1)” as the molecule, how does the coupling efficiency ([1]; initial ratio 60 AntpHD-Cw3/μmole lipid) read?
Answer: 80%

Question: What about the coupling efficiency ([1]; initial ratio 80 AntpHD-Cw3/μmole lipid) of the same molecule?
Answer: 65%

Question: What about the “saturation of AntpHD-Cw3 binding” value ([1]; liposomes with 10 mol % DOGS-NTA-Ni, FIG. 3) of the same molecule?
Answer: around 50 μg AntpHD-Cw3/μmole liposomal lipid
